Data published in PMC4760375, “A dual phosphorylation switch controls 14-3-3-dependent cell surface expression of TASK-1” (Journal of Cell Science, 2016).
Like-named read-outs stand apart in the source and are kept apart here. One block for each molecule: values may come before it. Non-standard residues stand in square brackets, D forms with d. Residues, ends and D or L forms follow the SMILES beside them. No end group written: not given here. pS = N[C@@H](COP(=O)(O)O)C(=O)O

Legend:
[1] = target: 14-3-3 proteins (all seven isoforms); assay: Fluorescence polarization titration, statements across the 14-3-3 isoforms; type: binding, human
Experimental: TASK-1 or TASK-3 C-terminal fluorescent peptides (10 nM), comprising the last 15 amino acids of the respective C-termini, were titrated with concentrations of the 14-3-3 proteins ranging from 1 nM to 120 µM (Fig. 2), and the equilibrium dissociation constants of 14-3-3 proteins were calculated for TASK-1 phosphorylated at S393 (TASK-1 pS393; the conserved serine residue of the mode III 14-3-3-binding motif) and for TASK-3 phosphorylated at S373 (TASK-3 pS373) (Table 1). They ranged from 7.5±0.14 µM (mean±s.e.m.; 14-3-3β) to 49.4±2 µM (14-3-3τ) for TASK-1, whereas dissociation constants for TASK-3 ranged from 110±10 nM (14-3-3η) to 3.6±0.44 µM (14-3-3σ). The latter value matches the result determined previously by [Anders et al. (2013]) for the TASK-3 C-terminal hexapeptide using isothermal titration calorimetry. The dissociation constants of the seven mammalian 14-3-3 isoforms for the same TASK C-terminal peptide differed up to sevenfold for TASK-1-derived peptides and up to 30-fold for TASK-3-derived peptides. […] No binding of any 14-3-3 isoform to any TASK C-terminal peptide was observed when the peptides were not phosphorylated.
Fig. 2. […] Fluorescence polarization titration of fluorescein-labeled TASK-1 pS393 (black), TASK-3 pS373 (red) and TASK-3 pS373 ΔV374 (blue) peptide (10 nM) with increasing concentrations of the indicated 14-3-3 isoform. Fluorescein was excited at 485 nm, and fluorescence polarization was monitored at 535 nm. A monophasic fit was used to fit the data (Goodness-of-fit: R^2 from 0.76 to 0.98). No binding was detectable for the unphosphorylated TASK C-terminal peptides. The assay was repeated at least six times for each data point with two batches of independently purified 14-3-3 proteins. Error bars depict s.e.m. (A) 14-3-3β, (B) 14-3-3γ, (C) 14-3-3ε, (D) 14-3-3ζ, (E) 14-3-3η and (F) 14-3-3τ.
[Mant et al. (2011)] report that both serine residues present in the TASK-1 C-terminus can be phosphorylated in vitro by the recombinant catalytic subunit of PKA. […] Next, using fluorescence polarization titration, we determined how phosphorylation of S392 affects the affinity of all seven mammalian 14-3-3 proteins for the TASK-1 C-terminus – either when phosphorylated alone or in combination with phosphorylation of S393 (Table S1). […] Because all Kd values determined for TASK-1 pS392 and the doubly phosphorylated protein (at S392 and S393) were substantially higher than those measured for TASK-1 pS393 (Table S1), we conclude that phosphorylation of S392 cannot substitute for phosphorylated S393 in creating a high-affinity 14-3-3 binding site. On the contrary, our results are consistent with an inhibitory role for phosphorylation of S392 with respect to 14-3-3-mediated binding.
Interactions between 14-3-3 proteins and TASK-1 and TASK-3 C-terminal peptides and variants were investigated using a fluorescence polarization assay ([Moll et al., 2006]; [Muda et al., 2014]). Fluorescein-labeled peptides were purchased from Peps4Life Sciences (Heidelberg, Germany). All measurements were performed in buffer containing 20 mM MOPS, 150 mM NaCl, 0.005% (v/v) CHAPS pH 7.0, using a Fusion™ α-FP microtiter plate reader at room temperature in a 384-well microtiter plater (Optiplate 384, black; Packard, Meriden, CT). 14-3-3 proteins were serially diluted from 100 µM to 1 nM and incubated with 10 nM of fluorescently labeled peptide. The fluorescence polarization signal was detected for 2 s at an excitation wavelength of 485 nm with an emission fluorescence polarization filter wavelength of 535 nm and a photomultiplier voltage of 1100. Data were analyzed with GraphPad Prism 6.0 (GraphPad Software, San Diego, CA) by plotting the obtained fluorescence polarization signal in millipolarization units (mPol) against the logarithm of the 14-3-3 protein concentration. The data were then fitted using a monophasic fit.

[2] = target: GST-tagged TASK-3 C-terminal 15 residues fusion protein, phosphorylated with PKA catalytic subunit (human) (UniProt Q9NPC2); assay: SPR; GST fusion protein captured by an anti-GST antibody on an HC1000m chip, phosphorylated on the chip with PKA catalytic subunit; 14-3-3 proteins as analyte; 20°C; 150 mM NaCl, 20 mM HEPES, 0.005% (v/v) Tween 20, pH 7.5; equilibrium binding isotherms
[3] = target: TASK-3 pS373 C-terminal fluorescent peptide (last 15 amino acids) (human) (UniProt Q9NPC2); assay: fluorescence polarisation; 10 nM fluorescein-labelled peptide titrated with 14-3-3 protein (1 nM to 120 µM in the results, 100 µM to 1 nM in the methods); 20 mM MOPS, 150 mM NaCl, 0.005% (v/v) CHAPS pH 7.0; room temperature; monophasic fit
[4] = target: TASK-1 pS392 C-terminal fluorescent peptide (human) (UniProt O14649); assay: as above
[5] = target: T1, GST-tagged TASK-3 C-terminal 15 residues fusion protein, phosphorylated with PKA catalytic subunit (human, UniProt Q9NPC2 360-374); assay: SPR
T1 chain: {GST}-SFTDHQRLMKRRK[pS]V

[6] = target: TASK-1 pS393 C-terminal fluorescent peptide (last 15 amino acids) (human) (UniProt O14649); assay: fluorescence polarisation; 10 nM fluorescein-labelled peptide titrated with 14-3-3 protein (1 nM to 120 µM in the results, 100 µM to 1 nM in the methods); 20 mM MOPS, 150 mM NaCl, 0.005% (v/v) CHAPS pH 7.0; room temperature; monophasic fit
[7] = fluorescence polarization, best of the seven isoforms, read-out: Kd of the highest-affinity 14-3-3 interaction

Kd values across the 14-3-3 proteins (approximate, Table S1) ([1]; fluorescence polarization titration, all seven 14-3-3 proteins): high micromolar range
Molecule: CSCC[C@H](NC(=O)[C@H](CC(C)C)NC(=O)CNC(=O)[C@H](CCCNC(=N)N)NC(=O)[C@H](Cc1ccccc1)NC(=O)[C@@H](NC(=O)[C@H](CO)NC(=O)[C@H](CC(C)C)NC(=O)[C@H](CO)NC(=O)[C@@H](N)CS)[C@@H](C)O)C(=O)N[C@@H](CCCCN)C(=O)N[C@@H](CCCNC(=N)N)C(=O)N[C@@H](CCCNC(=N)N)C(=O)N[C@@H](COP(=O)(O)O)C(=O)N[C@@H](COP(=O)(O)O)C(=O)N[C@H](C(=O)O)C(C)C [doubly phosphorylated peptide] (H-CSLSTFRGLMKRR[pS][pS]V-OH; N-terminus assumed)

Kd [2]: 0.742 µM
Kd [3]: 3.6 µM
Kd [4]: 100 µM
Molecule: 14-3-3σ (from UniProt P31947 1-248) (natural protein)

Kd ([1]; fluorescence polarization titration, all seven 14-3-3 proteins, read-out: Kd values across the 14-3-3 proteins (approximate, Table S1)): ~100 µM
Molecule: CSCC[C@H](NC(=O)[C@H](CC(C)C)NC(=O)CNC(=O)[C@H](CCCNC(=N)N)NC(=O)[C@H](Cc1ccccc1)NC(=O)[C@@H](NC(=O)[C@H](CO)NC(=O)[C@H](CC(C)C)NC(=O)[C@H](CO)NC(=O)[C@@H](N)CS)[C@@H](C)O)C(=O)N[C@@H](CCCCN)C(=O)N[C@@H](CCCNC(=N)N)C(=O)N[C@@H](CCCNC(=N)N)C(=O)N[C@@H](COP(=O)(O)O)C(=O)N[C@@H](CO)C(=O)N[C@H](C(=O)O)C(C)C [TASK-1 pS392] (H-CSLSTFRGLMKRR[pS]SV-OH)

Kd [1, 7]: ~10 µM
Molecule: CSCC[C@H](NC(=O)[C@H](CC(C)C)NC(=O)CNC(=O)[C@H](CCCNC(=N)N)NC(=O)[C@H](Cc1ccccc1)NC(=O)[C@@H](NC(=O)[C@H](CO)NC(=O)[C@H](CC(C)C)NC(=O)[C@H](CO)NC(=O)[C@@H](N)CS)[C@@H](C)O)C(=O)N[C@@H](CCCCN)C(=O)N[C@@H](CCCNC(=N)N)C(=O)N[C@@H](CCCNC(=N)N)C(=O)N[C@@H](CO)C(=O)N[C@@H](COP(=O)(O)O)C(=O)N[C@H](C(=O)O)C(C)C [TASK-1 pS393] (H-CSLSTFRGLMKRRS[pS]V-OH; N-terminus assumed)
fold lower affinity for 14-3-3 proteins than the TASK-3 C-terminus ([1]; fluorescence polarization, TASK-1 pS393 versus TASK-3 pS373): 10- to 100 fold

Kd [1, 7]: ~0.1 µM
Molecule: CSCC[C@H](NC(=O)[C@H](CC(C)C)NC(=O)[C@H](CCCNC(=N)N)NC(=O)[C@H](CCC(N)=O)NC(=O)[C@H](Cc1c[nH]cn1)NC(=O)[C@H](CC(=O)O)NC(=O)[C@@H](NC(=O)[C@H](Cc1ccccc1)NC(=O)[C@H](CO)NC(=O)[C@@H](N)CS)[C@@H](C)O)C(=O)N[C@@H](CCCCN)C(=O)N[C@@H](CCCNC(=N)N)C(=O)N[C@@H](CCCNC(=N)N)C(=O)N[C@@H](CCCCN)C(=O)N[C@@H](COP(=O)(O)O)C(=O)N[C@H](C(=O)O)C(C)C [TASK-3 pS373] (H-CSFTDHQRLMKRRK[pS]V-OH; N-terminus assumed)

Kd [5]: 0.246 µM
Kd [6]: 49.4 µM
Kd [4]: 100 µM
B1: 14-3-3τ (natural protein)
chain: MEKTELIQKAKLAEQAERYDDMATCMKAVTEQGAELSNEERNLLSVAYKNVVGGRRSAWRVISSIEQKTDTSDKKLQLIKDYREKVESELRSICTTVLELLDKYLIANATNPESKVFYLKMKGDYFRYLAEVACGDDRKQTIDNSQGAYQEAFDISKKEMQPTHPIRLGLALNFSVFYYEILNNPELACTLAKTAFDEAIAELDTLNEDSYKDSTLIMQLLRDNLTLWTSDSAGEECDAAEGAEN

Kd [5]: 0.221 µM
Kd [4]: 100 µM
B2: 14-3-3ζ (natural protein)
chain: MDKNELVQKAKLAEQAERYDDMAACMKSVTEQGAELSNEERNLLSVAYKNVVGARRSSWRVVSSIEQKTEGAEKKQQMAREYREKIETELRDICNDVLSLLEKFLIPNASQAESKVFYLKMKGDYYRYLAEVAAGDDKKGIVDQSQQAYQEAFEISKKEMQPTHPIRLGLALNFSVFYYEILNSPEKACSLAKTAFDEAIAELDTLSEESYKDSTLIMQLLRDNLTLWTSDTQGDEAEAGEGGEN

Kd [5]: 0.115 µM
Kd [3]: 0.11 µM
Kd [4]: 100 µM
B3: 14-3-3η (natural protein)
chain: MGDREQLLQRARLAEQAERYDDMASAMKAVTELNEPLSNEDRNLLSVAYKNVVGARRSSWRVISSIEQKTMADGNEKKLEKVKAYREKIEKELETVCNDVLSLLDKFLIKNCNDFQYESKVFYLKMKGDYYRYLAEVASGEKKNSVVEASEAAYKEAFEISKEQMQPTHPIRLGLALNFSVFYYEIQNAPEQACLLAKQAFDDAIAELDTLNEDSYKDSTLIMQLLRDNLTLWTSDQQDEEAGEGN
